PMC9475553, “SHF Acts as a Novel Tumor Suppressor in Glioblastoma Multiforme by Disrupting STAT3 Dimerization” (Advanced Science, 2022)

Assays:
[1] = system: U87 cells; assay: Cell growth assay (CCK-8), U87; assay type: cell-based, human; conditions: n=6
Experimental: Cell growth was quantified using the Cell Counting Kit‐8 Assay Kit (Bimake, Houston, TX). Each experiment was repeated at least six times. For the colony formation assay, 800 cells were seeded into each well of a six‐well plate with soft agar (Agarose; Sigma, St. Louis, MO) and maintained in a medium containing 10% FBS for 14 days. The colonies were fixed with methanol and stained with 0.1% crystal violet; the clones containing at least 50 cells were counted using an inverted microscope.
Supplementary Fig. 9 C16 inhibits tumor growth and promotes chemosensitivity in vitro.
B. Colony formation of cells treated with SC or C16 (left) and the accompanying statistical
analysis (right; n=6, Student’s t-test, **P < 0.01).
C. Annexin V staining flow cytometry assay of cells simultaneously treated with Dox with SC or
C16 for 48 h (n=3, Student’s t-test, *P < 0.05, **P < 0.01).
(1 picture or pasted object on this page, not shown here)

[2] = biological target: immobilized STAT3 (Homo sapiens, UniProt P40763); assay: Static adsorption equilibrium assay, immobilized STAT3; assay type: binding
Sequence of immobilized STAT3 (P40763 whole entry, the tested form may be a part): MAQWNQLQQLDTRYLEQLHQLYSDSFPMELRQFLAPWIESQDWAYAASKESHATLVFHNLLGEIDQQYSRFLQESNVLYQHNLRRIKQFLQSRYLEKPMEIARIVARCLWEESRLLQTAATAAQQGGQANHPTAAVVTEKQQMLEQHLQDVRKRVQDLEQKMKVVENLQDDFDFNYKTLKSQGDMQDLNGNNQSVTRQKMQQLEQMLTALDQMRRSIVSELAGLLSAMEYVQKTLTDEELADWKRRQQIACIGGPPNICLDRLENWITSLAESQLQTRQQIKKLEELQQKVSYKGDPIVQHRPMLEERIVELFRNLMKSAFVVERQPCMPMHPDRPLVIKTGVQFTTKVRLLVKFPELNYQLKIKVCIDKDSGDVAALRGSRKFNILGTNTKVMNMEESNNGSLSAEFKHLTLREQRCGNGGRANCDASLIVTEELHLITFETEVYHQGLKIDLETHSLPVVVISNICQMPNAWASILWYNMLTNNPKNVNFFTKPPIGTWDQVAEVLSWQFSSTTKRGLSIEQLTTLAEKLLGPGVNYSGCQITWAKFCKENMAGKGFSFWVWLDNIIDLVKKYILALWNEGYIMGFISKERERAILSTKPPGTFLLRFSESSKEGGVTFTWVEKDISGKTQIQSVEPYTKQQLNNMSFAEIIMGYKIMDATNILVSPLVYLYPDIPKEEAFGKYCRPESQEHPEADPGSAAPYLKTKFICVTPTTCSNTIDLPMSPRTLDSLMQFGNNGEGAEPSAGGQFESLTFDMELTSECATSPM
From the text: Considering that the SH2 domain predominantly represents the inhibition of SHF on STAT3 dimerization and activity, we speculated that this domain may be an optional target for GBM suppression. To this end, we analyzed the mechanical interaction of SHF and STAT3. The structures of human SHF (aa265‐421) and STAT3 (aa130‐715). both of which spanned their respective SH2 domain. were simulated by Swiss‐Model server (https://swissmodel.expasy.org/). To simulate the interaction of SHF and STAT3, Discovery studio 2018 was employed to complete protein‐protein docking using ZDOCK as an initial stage. A rigid body molecular docking algorithm utilizing a fast Fourier transform (FFT) algorithm was used to further improve performance for searching in translational space. All the available structures from PDB were used to calculate the docking poses and the structures obtained were subjected to energy minimization filtration using the smart minimize algorithm (Max steps 200, RMS gradient 0.01). The highest resulting ZDock score was used as the appropriate conformational pose. […] Since these two spots are located closely to one another, the sequence spanning amino acids 388–421 was used as a peptide design master. To obtain a peptide with high internalization efficiency and a strong half‐life, we introduced a palmitic acid at the N‐terminus of the master sequence and amidated the C‐terminus. The designed peptide was named C16. A scrambled peptide containing a scrambled sequence targeting Spot1 was named SC and served as a negative control peptide. […] The static adsorption equilibrium experiment of immobilized STAT3 peptide was used to detect the binding rate of the synthesized peptide with STAT3 (Figure 7C). The concentration of immobilized STAT3 used was 85 nmol g^−1 wet gel. […] Thus, C16 acted as a powerful inhibitor of STAT3 dimerization and associated activity. Next, we determined the implication of C16 in tumor inhibition. […] A concentration of 25 uM was determined to be adequate for use in the subsequent experiments. […] Further, the impact of C16 on tumor propagation was examined in an intracranial xenograft model. U87 cells expressing luciferase were implanted into mouse brains. The mice were injected intraperitoneally (i.p.) with C16 or SC once every 2 days from the third day after cell transplantation. […] To investigate the effect of C16 on cell proliferation, EdU was injected 24 h prior to sacrifice.
Figure 7 Peptide derived from the STAT3‐binding sites of SHF is an effective GBM suppressive strategy. A) Binding model between SHF and STAT3 using ZDOCK server. […] B) IF staining determined the cell penetrability and nuclear‐localization of C16. U251 cells were incubated with C16 or SC for 2 h and performed IF staining using the indicated antibodies. Bars, 10 µm. C) The statical analysis of adsorption equilibrium assay detecting the binding of C16 and SC with recombinant STAT3. D) Pull‐down assay indicating C16 binds STAT3. GST‐STAT3 was incubated with C16 or SC for 2 h, and the pull‐down assay was performed using Anti‐His magnetic beads. E) IP assay showing the effect of C16 on STAT3 dimerization. 293T cells transfected with indicated vectors were incubated with C16 for 2 h. The relative quantification of STAT3 dimerization was listed. F) IP assay detecting the effect of C16 on the interaction of STAT3 and DNMT1. […] The relative quantification of STAT3/DNMT1 interaction was listed. […] The relative quantification of STAT3/DNMT1 interaction was listed. […]

maximum static adsorption (Qmax) ([2]; immobilized STAT3 85 nmol g^−1 wet gel, peptide 2-20 µM in PBS, stirred 12 h, free peptide by NanoDrop absorbance 240 nm, Langmuir isotherm, mean ± SD): 86.13 ± 0.18 nmol g^−1 wet gel
Kd ([2]; immobilized STAT3 85 nmol g^−1 wet gel, peptide 2-20 µM in PBS, stirred 12 h, free peptide by NanoDrop absorbance 240 nm, Langmuir isotherm, mean ± SD, read-out: equilibrium dissociation constant KD): 80 ± 20 nM
interaction model (stoichiometry) with STAT3 ([2]; maximum adsorption compared with actual amount of immobilized STAT3): 1:1 interaction model
Substance: C16: peptide spanning SHF amino acids 388–421, palmitic acid at the N-terminus, amidated C-terminus, 3× His tags added to the C-terminal (PFSSVPEIVHHYASRKLPIKGAEHMSLLYPVAIR; palmitic acid at the N-terminus; amidated C-terminus; left off: 3× His tags, C-terminal, kept)
cell growth inhibition [1]: inhibited cell growth with concentration dependence
KD of C16 compared with that of the SC peptide ([2]; static adsorption on immobilized STAT3, C16 vs SC): two orders of magnitude lower than that of the SC peptide
